Data taken from US20240100162A1 (published 2024).

T1: MAGE-B2 peptide on HLA-A*02:01 (human)
T1 peptide: GVYDGEEHSV


Biological target: T1, MAGE-B2 peptide on HLA-A*02:01
Assay: multimer staining

Binder | binding result
TCR6 (TCR, V domains shown) Valpha: AQTVTQSQPEMSVQEAETVTLSCTYDTSENNYYLFWYKQPPSRQMILVIRQEAYKQQNATENRFSVNFQKAAKSFSLKISDSQLGDTAMYFCAFFNAGKSTFGDGTTLTVKP Vbeta: EAGVAQSPRYKIIEKRQSVAFWCNPISGHATLYWYQQILGQGPKLLIQFQNNGVVDDSQLPKDRFSAERLKGVDSTLKIQPAKLEDSAVYLCASTVGGGPYGYTFGSGTRLTVV | recognises
TCR10 (TCR, V domains shown) Valpha: AQSVAQPEDQVNVAEGNPLTVKCTYSVSGNPYLFWYVQYPNRGLQFLLKYITGDNLVKGSYGFEAEFNKSQTSFHLKKPSALVSDSALYFCAVRDNARLMFGDGTQLVVKP Vbeta: SAVISQKPSRDICQRGTSLTIQCQVDSQVTMMFWYRQQPGQSLTLIATANQGSEATYESGFVIDKFPISRPNLTFSTLTVSNMSPEDSSIYLCSVGPSGHTGYTFGSGTRLTVV | recognises
TCR8 (TCR, V domains shown) Valpha: AQKITQTQPGMFVQEKEAVTLDCTYDTSDQSYGLFWYKQPSSGEMIFLIYQGSYDEQNATEGRYSLNFQKARKSANLVISASQLGDSAMYFCAMRGPTSYGKLTFGQGTILTVHP Vbeta: not shown | recognises
TCR5 (TCR, V domains shown) Valpha: KNEVEQSPQNLTAQEGEFITINCSYSVGISALHWLQQHPGGGIVSLFMLSSGKKKHGRLIATINIQEKHSSLHITASHPRDSAVYICAPGGNQFYFGTGTSLTVIP Vbeta: DAGITQSPRYKITETGRQVTLMCHQTWSHSYMFWYRQDLGHGLRLIYYSAAADITDKGEVPDGYVVSRSKTENFPLTLESATRSQTSVYFCASSGSNQPQHFGDGTRLSIL | recognises

Further lines, results first:

binding result | Binder
recognises | TCR11 (TCR, V domains shown) Valpha: GEDVEQSLFLSVREGDSSVINCTYTDSSSTYLYWYKQEPGAGLQLLTYIFSNMDMKQDQRLTVLLNKKDKHLSLRIADTQTGDSAIYFCAEKSITSYDKVIFGPGTSLSVIP Vbeta: DVKVTQSSRYLVKRTGEKVFLECVQDMDHENMFWYRQDPGLGLRLIYFSYDVKMKEKGDIPEGYSVSREKKERFSLILESASTNQTSMYLCASTRRGTYGYTFGSGTRLTVV
recognises | TCR7 (TCR, V domains shown) Valpha: GQNIDQPTEMTATEGAIVQINCTYQTSGFNGLFWYQQHAGEAPTFLSYNVLDGLEEKGRFSSFLSRSKGYSYLLLKELQMKDSASYLCAVRRLGGYQKVTFGTGTKLQVIP Vbeta: GAGVSQSPSNKVTEKGKDVELRCDPISGHTALYWYRQRLGQGLEFLIYFQGNSAPDKSGLPSDRFSAERTGESVSTLTIQRTQQEDSAVYLCASSLVTGSSYNEQFFGPGTRLTVL
